Test results published in patent publication US6962795 (CORVAS INTERNATIONAL, dated 2005).

Experiments:
[1] = biological target: T1, Mac-1 integrin complex (CD11b/CD18) (human, UniProt P11215 17-1152; P05107 23-769); assay: ELISA on LM2-captured Mac-1, 3D2-HRP detection, Pichia supernatant
[2] = biological target: T1, Mac-1 integrin complex (CD11b/CD18); assay: competition ELISA with biotinylated mature NIF-1FL on LM2-captured Mac-1 (FIG. 18)
[3] = biological target: T1, Mac-1 integrin complex (CD11b/CD18); assay: competition with biotinylated NIF-1FL on LM2-captured Mac-1, Pichia supernatant
[4] = biological target: T1, Mac-1 integrin complex (CD11b/CD18); assay: soluble NIF-1FL pre-incubated in varying amounts on LM2/Mac-1-coated wells before the phages
[5] = biological target: T1, Mac-1 integrin complex (CD11b/CD18); assay: panning of a 1:1 mix of pAN-NIF-1FL and fd-tet phage on a Mac-1-coated well, acid elution, colony counts

B1: recombinant AcaNIF6 produced in Pichia pastoris (ligand)
chain: NEHKPMCQQNETEMPGFNDLMRLQFLAMHNGYRSKLALGHISITDESESDYDYDYGFLPDFAPSASKMRYLEYDCEAERSAYTSASDCSDSSSPPEGYDENKYIFENSNNISEAALKAMISWAKEAFNLNKTEKGVLYQPNHDISNFANLAWDTREKFGCAVVNCPLGEIDADIYDEETYATTIHVVCHYPKINKTEGEPIYKVGTPCDDCSEYTKKADNTTSADPVCIPDDGVCFIGSKADYDSKEFYRFREL
notes: also called mature AcaNIF6
Question: Does B1 bind [1]?
Answer: Result: binds

B2: recombinant AcaNIF4 produced in Pichia pastoris (ligand)
chain: NEHKPMCERNETEMPGFNDSMRLQFLAMHNGYRSLLALGHVGISKQPIDDDYYDDDYYYFYSSYAPRASKMRYLEYDCEAEKSAYVSASNCSNISSPPEGYDENKYIFENSNNISEAALKAMISWAKEAFNLNKTEEGEGVLYRSNHDISNFANLAWDTREKFGCAVVNCPLGEIDTTSNRDGETYATAIHVVCHYPKILEKEEKQIYEVGKPCDRCSEYSKNANNITSPNWVCNDDDGVCFIGSKDDYISKEFYRFREL
notes: also called mature AcaNIF4
Question: Does B2 bind [2]?
Answer: Result: binds

B3: recombinant AcaNIF9 produced in Pichia pastoris (ligand)
chain: NEHDPTCPQNEVEMEKGFDDAMRLKFLALHNGYRSKLALGHVSITEESEDYDLYDLLYAPTASKMRYLEYDCEAEKSAYESAKKCQTTAFSSTKYDENLQVIEDPRDINHAALKAIISWATEAFNLNKTGEGVVYRSILNISNFANLAWDTREKVGCAVVKCPSGNTHVVCHYPKIVKKEGKPIYSIGKPCRGCNDYASKFFCHADEGVCIIASRDLDIYGRKKYFYPFREL
notes: Only partially purified when tested
Question: Does B3 bind [3]?
Answer: Result: binds

B4: AceNIF3 produced in Pichia pastoris (pYAM7SP-AceNIF3) (ligand)
chain: NEHEPTCKQNNGSMTNELRRRFLRLHNGYRSILALGHVNISEESNETFLYAHRASRMRILDYDCDAEGSAYESAIKQCSSNKSSSAEYDENVYVIDNTYEDEVDPALKAISSWTSQAFNLTHAEEGIPYQWNDSVSDFANVAWDAREKLGCAVVTCDQGNTTHVVCHYGPKAANKTEPIYKVGVPCSNCTEYTRGDEEKVFCHADEGVCVINLRDLNSHLNTSLRYPPI
notes: Carries a hybrid N-terminus N-E-H-E-P-T-C-K-Q (first three residues from AcaNIF9); Tested as crude Pichia cell supernatant
Question: Does B4 bind [3]?
Answer: Result: binds

B5: recombinant mature NIF-1FL produced in Pichia pastoris (ligand)
chain: NEHNLRCPQNGTEMPGFNDSIRLQFLAMHNGYRSKLALGHISITEESESDDDDDFGFLPDFAPRASKMRYLEYDCEAEKSAYMSARNCSDSSSPPEGYDENKYIFENSNNISEAALKAMISWAKEAFNLNKTKEGEGVLYRSNHDISNFANLAWDAREKFGCAVVNCPLGEIDDETNHDGETYATTIHVVCHYPKINKTEGQPIYKVGTPCDDCSEYTKKADNTTSADPVCIPDDGVCFIGSKADYDSKEFYRFREL
modifications: N-glycosylated (Pichia); biotinylated on oxidised carbohydrate where used as labelled tracer
notes: also called rNIF; recombinant NIF
Question: Does B5 bind [4]?
Answer: Result: binds

B6: phages displaying mature NIF-1FL (NIF-1FL-pgIII fusion from pAN-NIF-1FL) (other)
chain: NEHNLRCPQNGTEMPGFNDSIRLQFLAMHNGYRSKLALGHISITEESESDDDDDFGFLPDFAPRASKMRYLEYDCEAEKSAYMSARNCSDSSSPPEGYDENKYIFENSNNISEAALKAMISWAKEAFNLNKTKEGEGVLYRSNHDISNFANLAWDAREKFGCAVVNCPLGEIDDETNHDGETYATTIHVVCHYPKINKTEGQPIYKVGTPCDDCSEYTKKADNTTSADPVCIPDDGVCFIGSKADYDSKEFYRFREL
notes: An extra Ala codon stands between the pelB signal and NIF-1FL; also called NIF-phage; NIF-displaying phages; not shown: linker with a NotI site and a suppressed TAG amber codon between NIF-1FL and pgIII; product of filamentous phage M13 gene III (pgIII), fused at the C-terminus of NIF-1FL
Question: With B6 as the binder, how does the “fold enrichment over non-displaying fd-tet phage” value [5] read?
Answer: The value was 30 fold.

B7: recombinant NIF-1FL/ΔGl1-5 produced in Pichia pastoris (ligand)
chain: NEHNLRCPQQGTEMPGFQDSIRLQFLAMHNGYRSKLALGHISITEESESDDDDDFGFLPDFAPRASKMRYLEYDCEAEKSAYMSARQCSDSSSPPEGYDENKYIFENSNQISEAALKAMISWAKEAFNLQKTKEGEGVLYRSNHDISNFANLAWDAREKFGCAVVNCPLGEIDDETNHDGETYATTIHVVCHYPKINKTEGQPIYKVGTPCDDCSEYTKKADNTTSADPVCIPDDGVCFIGSKADYDSKEFYRFREL
notes: Mature NIF-1FL with Asn to Gln at positions 10, 18, 87, 110 and 130; also called hNIF1/ΔGl1-5; AcaNIF1/ΔGl1-5
Question: Does B7 bind [1]?
Answer: Result: binds

B8: recombinant NIF-1FL/Δh, Gl1-7 produced in Pichia pastoris (ligand)
chain: NEHNLRCPQQGTEMPGFQDSIRLQFLAMHNGYRSKLALGHISITEESESDDDDDFGFLPDFAPRASKMRYLEYDCEAEKSAYMSARQCSDSSSPPEGYDENKYIFENSNQISEAALKAMISWAKEAFNLQKTKEGEGVLYRSNHDISNFANLAWDAREKFGCAVVNCPLGEIDDETNHDGETYATTIHVVCHYPKIQKTEGQPIYKVGTPCDDCSEYTKKADQTTSADPVCIPDDGVCFIGSKADYDSKEFYRFREL
notes: Mature NIF-1FL with Asn to Gln at positions 10, 18, 87, 110, 130, 197 and 223; also called hNIF1/Δh, Gl1-7; AcaNIF1/Δh, Gl1-7
Question: Does B8 bind [1]?
Answer: Result: binds
